Results taken from patent publication US20130280259A1, “USE OF ANTIBODIES AGAINST NK1, NK2 AND/OR NK3 RECEPTORS IN CANCER TREATMENT” (SERVICIO ANDALUZ DE SALUD, priority 2010, published 2013).
Values belong to the molecule of their own block, whether it stands above or below them. Positions of bridges follow the written chain, without caps; N, C: chain ends. Non-standard residues stand in square brackets, D forms with d. Residues, ends and D or L forms follow the SMILES beside them. *: point of attachment. NH(β-GlcNAc) = CC(=O)N[C@@H]1[C@@H](O)[C@H](O)[C@@H](CO)O[C@H]1N*; Dap = NC[C@H](N)C(=O)O

Assays:
NK1 receptor (human) = NK1 receptor (human) (UniProt P25103); assay: cell-based or functional assay
Chain of UniProt P25103 (P25103 whole entry): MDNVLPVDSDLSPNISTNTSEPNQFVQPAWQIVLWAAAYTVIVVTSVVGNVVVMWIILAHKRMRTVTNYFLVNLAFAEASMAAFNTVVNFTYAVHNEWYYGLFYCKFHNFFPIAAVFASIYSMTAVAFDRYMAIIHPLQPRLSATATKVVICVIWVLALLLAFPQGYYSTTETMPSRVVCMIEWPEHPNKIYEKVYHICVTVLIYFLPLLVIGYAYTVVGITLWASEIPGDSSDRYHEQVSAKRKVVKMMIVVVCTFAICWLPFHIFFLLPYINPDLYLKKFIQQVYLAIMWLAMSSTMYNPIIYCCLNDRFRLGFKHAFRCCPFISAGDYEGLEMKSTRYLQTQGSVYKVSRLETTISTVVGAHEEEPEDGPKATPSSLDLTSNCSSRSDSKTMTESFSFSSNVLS

[1] = system: human breast cancer cells; conditions: Singh D et al., 2000; Bigioni M. et al., 2005; cited from earlier work
[2] = molecular target: NK1, NK2 and NK3 receptors; assay: cell-based or functional assay

% of fibroblast cells with expression for MMP-3; anti-NK1 (1/100) and Substance P (1 µM) (NK1 receptor (human)): 0%
% of fibroblast cells with expression for MMP-7; anti-NK1 (1/100) and Substance P (1 µM) (NK1 receptor (human)): 0%
% of fibroblast cells with expression for MMP-9; anti-NK1 (1/100) and Substance P (1 µM) (NK1 receptor (human)): 0%
% of fibroblast cells with expression for MMP-11; anti-NK1 (1/100) and Substance P (1 µM) (NK1 receptor (human)): 0%
% of fibroblast cells with expression for MMP-13; anti-NK1 (1/100) and Substance P (1 µM) (NK1 receptor (human)): 0%
% of fibroblast cells with expression for MMP-14; anti-NK1 (1/100) and Substance P (1 µM) (NK1 receptor (human)): 0%
% of fibroblast cells with expression for SPARC; anti-NK1 (1/100) and Substance P (1 µM) (NK1 receptor (human)): 0%
% of fibroblast cells with expression for TGF-alpha; anti-NK1 (1/100) and Substance P (1 µM) (NK1 receptor (human)): 0%
% of fibroblast cells with expression for TGF-beta 1; anti-NK1 (1/100) and Substance P (1 µM) (NK1 receptor (human)): 0%
% of fibroblast cells with expression for TGF-beta 2; anti-NK1 (1/100) and Substance P (1 µM) (NK1 receptor (human)): 0%
% of fibroblast cells with expression for TGF-beta 3; anti-NK1 (1/100) and Substance P (1 µM) (NK1 receptor (human)): 0%
% of mononuclear cells with expression for NF-kB; anti-NK1 (1/100) and Substance P (1 µM) (NK1 receptor (human)): 0%
% of mononuclear cells with expression for TGF-beta; anti-NK1 (1/100) and Substance P (1 µM) (NK1 receptor (human)): 0%
% of polymorphonuclear cells with expression for NF-kB; anti-NK1 (1/100) (NK1 receptor (human)): 0%
% of polymorphonuclear cells with expression for TGF-beta; anti-NK1 (1/100) (NK1 receptor (human)): 0%
Molecule: anti-NK1 antibody (Sigma-Aldrich, product number S8305)

Molecule: CC(=O)N[C@@H]1[C@@H](O)[C@H](O)[C@@H](CO)O[C@H]1NC(=O)C[C@@H]1NC(=O)[C@H](CC(C)C)NC(=O)[C@@H]2CNC(=O)C[C@H](NC1=O)C(=O)N[C@@H](Cc1c[nH]c3ccccc13)C(=O)N[C@@H](Cc1ccccc1)C(=O)N2 [MEN 11420, nepadutant] (cyclo(D(NH(β-GlcNAc))DWF[Dap]L); lactam 2-5)
Blocking cell proliferation [1]: efficacy in blocking cell proliferation

Molecule: Cc1ccc(CC(=O)N(C)[C@H](Cc2ccc3ccccc3c2)C(=O)N[C@@H]2CCCC[C@@H]2NC(=O)c2c[nH]c3ccccc23)cc1 [MEN 11467]
Blocking cell proliferation [1]: efficacy in blocking cell proliferation

% of fibroblast cells with expression for MMP-3; Substance P (1 µM) [2]: 33.9%
% of fibroblast cells with expression for MMP-7; Substance P (1 µM) [2]: 46.2%
% of fibroblast cells with expression for MMP-9; Substance P (1 µM) [2]: 35.5%
% of fibroblast cells with expression for MMP-11; Substance P (1 µM) [2]: 7.8%
% of fibroblast cells with expression for MMP-13; Substance P (1 µM) [2]: 17.1%
% of fibroblast cells with expression for MMP-14; Substance P (1 µM) [2]: 47.3%
% of fibroblast cells with expression for SPARC; Substance P (1 µM) [2]: 16%
% of fibroblast cells with expression for TGF-alpha; Substance P (1 µM) [2]: 16.5%
% of fibroblast cells with expression for TGF-beta 1; Substance P (1 µM) [2]: 18.4%
% of fibroblast cells with expression for TGF-beta 2; Substance P (1 µM) [2]: 24.6%
% of fibroblast cells with expression for TGF-beta 3; Substance P (1 µM) [2]: 23.1%
% of mononuclear cells with expression for NF-kB; Substance P (1 µM) [2]: 25.7%
% of mononuclear cells with expression for TGF-beta; Substance P (1 µM) [2]: 16.4%
% of polymorphonuclear cells with expression for NF-kB; Substance P (1 µM) [2]: 17.5%
% of polymorphonuclear cells with expression for TGF-beta; Substance P (1 µM) [2]: 36.8%
B1: Substance P (product no. S6883; Sigma-Aldrich) (peptide, UniProt P20366 58-68, looked up)
peptide: RPKPQQFFGLM
